Experiments:
[1] = molecular target: T1, human IL-17F (human, UniProt Q96PD4 31-163, biotinylated with Sulfo-NHS-LC-Biotin in the AlphaScreen assays only); test: cell-based or functional assay
T1 sequence: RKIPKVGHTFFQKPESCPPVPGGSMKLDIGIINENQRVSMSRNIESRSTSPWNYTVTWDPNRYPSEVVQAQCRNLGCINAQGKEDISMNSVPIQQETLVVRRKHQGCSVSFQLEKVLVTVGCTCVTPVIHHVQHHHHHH

[2] = molecular target: T1, human IL-17F; test: AlphaScreen competition, hIL-17F - IL-17RA-Fc
Procedure: (§1) To this mixture, the IL-17RA or IL-17RC Fc-fusions, Acceptor beads and the streptavidin Donor beads were added and further incubated for 1 hour at RT.

[3] = molecular target: T1, human IL-17F; test: AlphaScreen competition, hIL-17F - IL-17RC-Fc
Procedure: as §1

[4] = molecular target: T1, human IL-17F; test: SPR Biacore, hIL-17F on chip; purified protein
Procedure: (§2) Off-rates of the periplasmic extracts containing anti-IL-17 Nanobodies were measured by Surface Plasmon Resonance (SPR) using a Biacore T100 instrument. […] Periplasmic extracts containing IL-17 neutralizing Nanobodies were injected for 2 minutes at a flow rate of 45 μl/min to allow binding to chip-bound antigen. Next, binding buffer without periplasmic extracts was sent over the chip at the same flow rate to allow spontaneous dissociation of bound Nanobody. From the sensorgrams obtained for the different periplasmic extracts koff-values (k₄) were calculated.

[5] = molecular target: T2, human IL-17A/F heterodimer (human, UniProt Q16552 24-155; Q96PD4 31-163, limits assumed, biotinylated with Sulfo-NHS-LC-Biotin in the AlphaScreen assays only); test: AlphaScreen competition, hIL-17A/F - IL-17RC-Fc
T2 construct: also called hIL-17A/F
Target sequence in this assay (Q16552 24-155 limits assumed, chain 1 of 2, one chain of several): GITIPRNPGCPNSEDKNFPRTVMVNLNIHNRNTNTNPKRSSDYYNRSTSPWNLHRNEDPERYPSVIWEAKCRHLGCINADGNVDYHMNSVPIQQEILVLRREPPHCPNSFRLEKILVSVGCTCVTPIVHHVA
Procedure: as §1

[6] = molecular target: T2, human IL-17A/F heterodimer; test: SPR Biacore, hIL-17A/F on chip; purified protein
Target sequence in this assay (Q16552 24-155 limits assumed, chain 1 of 2, one chain of several): as above

[7] = molecular target: T3, human IL-17A (human, UniProt Q16552 24-155, biotinylated with Sulfo-NHS-LC-Biotin in the AlphaScreen assays only); test: SPR Biacore, hIL-17A on chip; periplasmic extract (*); NB = no binding
T3 construct: also called hIL-17A; recombinant human IL-17A
T3 sequence (Q16552 other isoform, or with tags, fused parts or gaps): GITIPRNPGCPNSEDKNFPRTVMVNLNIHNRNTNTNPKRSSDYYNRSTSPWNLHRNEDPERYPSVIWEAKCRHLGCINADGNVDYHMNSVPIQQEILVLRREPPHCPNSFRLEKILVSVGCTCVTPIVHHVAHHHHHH
Procedure: as §2

[8] = molecular target: T2, human IL-17A/F heterodimer; test: cell-based or functional assay
Target sequence in this assay (Q16552 24-155 limits assumed, chain 1 of 2, one chain of several): as the sequence (Q16552 24-155 limits assumed, chain 1 of 2, one chain of several) above

[9] = molecular target: T2, human IL-17A/F heterodimer; test: AlphaScreen competition, hIL-17A/F - IL-17RA-Fc
Target sequence in this assay (Q16552 24-155 limits assumed, one chain of several): as the sequence (Q16552 24-155 limits assumed, chain 1 of 2, one chain of several) above
Procedure: as §1

[10] = molecular target: T4, human IL-17F (human, UniProt Q96PD4 31-163); test: SPR (Biacore) off-rate
T4 construct: made in Hek293 cells (GenBank AF384857); also called hIL-17F; hIL17F
T4 sequence: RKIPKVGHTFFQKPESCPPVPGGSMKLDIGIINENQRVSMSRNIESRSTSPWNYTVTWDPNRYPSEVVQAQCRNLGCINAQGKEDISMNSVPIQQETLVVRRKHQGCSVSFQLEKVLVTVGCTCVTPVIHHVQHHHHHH

[11] = molecular target: T5, human IL-17A/F heterodimer (human, UniProt Q16552 24-155; Q96PD4 31-163, limits assumed); test: SPR (Biacore) off-rate
T5 construct: bought, made in E. coli (R&D Systems 5194-IL/CF); also called hIL-17A/F; hIL17A/F
T5 sequence (Q16552 24-155 limits assumed, chain 1 of 2, one chain of several): as the sequence (Q16552 24-155 limits assumed, chain 1 of 2, one chain of several) above

[12] = molecular target: T6, mouse IL-17A (mouse, UniProt Q62386 26-158); test: ELISA, coated IL-17A
T6 sequence (looked up): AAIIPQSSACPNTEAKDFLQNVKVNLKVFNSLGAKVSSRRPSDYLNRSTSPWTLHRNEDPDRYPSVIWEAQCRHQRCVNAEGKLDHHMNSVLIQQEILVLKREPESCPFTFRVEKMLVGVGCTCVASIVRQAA
Procedure: (§3) Binding of a selected panel of anti-IL-17 Nanobodies to IL-17 of other species was assessed using a binding ELISA. […] HRP (horseradish peroxidase) conjugated anti-myc (Serotec, MCA 2200P) was used for detection using esTMB as substrate.

[13] = molecular target: T7, rat IL-17A (rat, UniProt Q61453 18-150, limits assumed); test: ELISA, coated IL-17A
T7 sequence (looked up): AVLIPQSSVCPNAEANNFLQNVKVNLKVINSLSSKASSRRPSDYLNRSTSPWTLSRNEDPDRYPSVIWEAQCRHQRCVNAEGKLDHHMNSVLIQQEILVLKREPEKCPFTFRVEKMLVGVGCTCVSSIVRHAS
Procedure: as §3

[14] = molecular target: guinea pig IL-17A (guinea pig); test: ELISA, coated IL-17A
Procedure: as §3

[15] = molecular target: T8, human IL-17F (human, UniProt Q96PD4 31-163); test: ELISA, coated IL-17F;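 further: binding ELISA on coated antigen from various species, with bound Nanobodies revealed by an HRP-linked anti-myc antibody and esTMB substrate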
T8 construct: GenBank AF384857, expressed in Hek293 as 6-His C-terminal tagged protein; also called hIL-17F; IL-17F-6HIS
T8 sequence: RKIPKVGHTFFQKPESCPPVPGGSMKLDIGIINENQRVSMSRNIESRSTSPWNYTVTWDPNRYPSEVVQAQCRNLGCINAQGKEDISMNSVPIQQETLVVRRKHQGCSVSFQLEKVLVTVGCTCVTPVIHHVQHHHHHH
Procedure: as §3

[16] = molecular target: T9, marmoset IL-17F (marmoset, UniProt A6N6I9 31-163); test: ELISA, coated IL-17F;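 further: binding ELISA on coated antigen from various species, with bound Nanobodies revealed by an HRP-linked anti-myc antibody and esTMB substrate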
T9 sequence (looked up): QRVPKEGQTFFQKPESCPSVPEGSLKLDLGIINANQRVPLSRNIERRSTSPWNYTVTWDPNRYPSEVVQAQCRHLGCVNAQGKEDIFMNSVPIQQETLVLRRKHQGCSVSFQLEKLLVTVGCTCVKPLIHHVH
Procedure: as §3

[17] = molecular target: T10, rat IL-17F (rat, UniProt Q5BJ95 29-161); test: ELISA, coated IL-17F;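 further: binding ELISA on coated antigen from various species, with bound Nanobodies revealed by an HRP-linked anti-myc antibody and esTMB substrate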
T10 sequence (looked up): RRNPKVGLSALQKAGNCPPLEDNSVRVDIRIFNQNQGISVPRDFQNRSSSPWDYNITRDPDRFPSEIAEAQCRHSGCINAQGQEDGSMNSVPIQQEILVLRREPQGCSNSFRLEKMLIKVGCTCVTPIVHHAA
Procedure: as §3

[18] = molecular target: T11, human IL-17A (human, UniProt Q16552 24-155); test: ELISA, coated IL-17A
T11 construct: secreted form (GenBank U32659) expressed in Hek293 with C-terminal 6-His; also called hIL-17A; IL-17A-6HIS
T11 sequence (Q16552 other isoform, or with tags, fused parts or gaps): as the sequence (Q16552 other isoform, or with tags, fused parts or gaps) above
Procedure: as §3

[19] = molecular target: T12, marmoset IL-17A (marmoset, IL-17A is a disulfide-linked homodimer. One chain is given.); test: ELISA, coated IL-17A
T12 chain: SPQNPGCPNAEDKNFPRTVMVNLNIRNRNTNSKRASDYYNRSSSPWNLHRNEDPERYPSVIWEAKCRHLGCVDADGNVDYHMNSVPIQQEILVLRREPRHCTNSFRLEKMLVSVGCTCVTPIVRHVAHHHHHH
Procedure: as §3

[20] = molecular target: T11, human IL-17A; test: SPR, IL-17A-Nanobody complex over captured IL-17RA
Source text: The receptor (IL-17RA or IL-17RC) was captured via its human Fc-tail by an anti-human IgG-Fc antibody coated on the chip.

[21] = molecular target: T13, mouse IL-17F (mouse, UniProt Q7TNI7 29-161); test: ELISA, coated IL-17F;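 further: binding ELISA on coated antigen from various species, with bound Nanobodies revealed by an HRP-linked anti-myc antibody and esTMB substrate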
T13 sequence (looked up): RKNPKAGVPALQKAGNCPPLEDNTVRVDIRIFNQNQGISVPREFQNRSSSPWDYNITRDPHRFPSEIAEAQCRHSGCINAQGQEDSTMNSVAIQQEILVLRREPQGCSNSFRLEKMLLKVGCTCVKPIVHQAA
Procedure: as §3

B1: 08A08 (VHH)
VHH: EVQLVESGGGLVQAGGSLRLSCAASGRTFRPYRMGWFRRAPGKAREFVTLISWSSGRTSYADSVKGRFTISRDSAKNAVYLQMDNLKPEDTAVYFCAVDLSGDAVYDSWGQGTQVTVSS
notes: Class 3 Nanobody (anti-IL-17F); not shown: c-myc, His6 tag
With B1 the “IL-17F-induced IL-6 production in HT-1080 cells, Emax” value [1] was 62%, the “IL-17F-induced IL-6 production in HT-1080 cells, IC50” value [1] was 206 nM and the IC50 [2] was 3.84 nM. The IC50 [3] was 1.3 nM, the koff [4] was 0.048 s⁻¹ and the IC50 [5] was 19.7 nM. For the same binder, the koff [6] was 0.0079 s⁻¹ and the binding result [7] was “no binding”.

B2: 12A09 (VHH)
VHH: EVQLVESGGGLVQPGGSLRLSCAASGFTFSSYRMAWVRQAPGKGLEWVSSTSTGGEMTNYADSVKGRFTISRDNAKNTLHLQMNSLKPEDTALYYCAAGTSAGHWSTGGQGTQVTVSS
notes: as for B1
In the case of B2, the “IL-17F-induced IL-6 production in HT-1080 cells, Emax” value [1] is reported as 91%, the “IL-17F-induced IL-6 production in HT-1080 cells, IC50” value [1] is reported as 105 nM and the “IL-17A/F-induced IL-6 production in HT-1080 cells, Emax” value [8] is reported as 41.5%. For the same binder, the “IL-17A/F-induced IL-6 production in HT-1080 cells, IC50” value [8] was 100 nM, the IC50 [2] was 1.84 nM and the IC50 [3] was 0.612 nM. The IC50 [9] was > 250 nM, the IC50 [5] was 33.2 nM and the koff [6] was 0.017 s⁻¹. B2: no binding [7].

B3: IL17MS3056 (VHH)
VHH: EVQLVESGGGLVQPGGSLRLSCAASGRTFSSYVVGWFRQAPGKEREFVGAISGSGDSIYYAVSEKDRFTISRDNSKNTLYLQMSSLRAEDTAVYYCTADQEFGYLRFGRSEYWGQGTLVTVSS
notes: variant of IL17MS16A04; Kabat numbering
B3 was tested, and the koff [10] was 0.000514 s⁻¹ and the koff [11] was 0.00288 s⁻¹.

B4: 04B09 (VHH)
VHH: EVQLVESGGGLVQPGGSLRLSCAASGFTLGYYAIGWFRQAPGKEREGVSCDSSSDGDTYYANSVKGRFTISTDNGKNTVYLQMNSLKPEDTAVYYCATCTDWNYDYWGQGTQVTVSS
notes: Class 2
Work on B4 yielded an OD [12] of 0 OD, an OD [13] of 0.001 OD and an OD [14] of 0.006 OD. It also gave an OD [15] of -0.015 OD, an OD [16] of 0.0025 OD and an OD [17] of 0.0015 OD.

B5: 09G10 (VHH)
VHH: EVQLVESGGGLVQAGGSLRLSCAASDSVFTAKAVGWYRQPPGLQREWVAIITSGGKTNYADSSVKGRFTVSVDKVKNTVTLQMNSLKPEDTAVYYCYAQWMGRDYWGQGTQVTVSS
notes: Class 2
With B5 the OD [18] was 1.64 OD, the OD [19] was 1.58 OD and the OD [12] was -0.001 OD. For the same binder, the OD [13] was 0.003 OD, the OD [14] was 0.006 OD and the OD [15] was -0.018 OD. For the same binder, the OD [16] was 0.0045 OD, the OD [17] was 0.0025 OD and the “% Biacore binding (IL-17A-NB)-IL-17RA” value [20] was 2.05%.

B6: 11A06 (VHH)
VHH: EVQLVESGGGLVQPGESLRLSCKASGFSLDYYALGWFRQAPGKEREGISCITSSDASAYYTDSVKGRFTISRDNSKNTVYLQMNSLKTEDTAIYYCAAALLTCSSYYDAYTYWGQGTQVTVSS
notes: Class 2
B6 gave an OD [18] of 1.69 OD, an OD [19] of 1.71 OD and an OD [12] of 0.004 OD. For the same binder, the OD [13] was 0.008 OD, the OD [14] was 0.007 OD and the OD [15] was 0.673 OD. The OD [16] was 0.0225 OD, the OD [21] was 0.0455 OD and the OD [17] was 0.0045 OD. The “% Biacore binding (IL-17A-NB)-IL-17RA” value [20] was -0.35%.

B7: IL17MS3055 (VHH)
VHH: EVQLVESGGGLVQPGGSLRLSCAASGRTFSSYVVGWFRQAPGKEREFIGAISGSGDSIYYAVSEKGRFTISRDNGKNTLYLQMNSLRAEDTAVYYCTADQEFGYLRFGRSEYWGQGTLVTVSS
In the case of B7, the koff [10] is reported as 0.000493 s⁻¹ and the koff [11] is reported as 0.00332 s⁻¹.

B8: IL17MS3054 (VHH)
VHH: EVQLVESGGGLVQPGGSLRLSCAASGRTFSSYVVGWFRQAPGKEREFIGAISGSGDSIYYAVSEKDRFTISRDNSKNTLYLQMSSLRPEDTAVYYCTADQEFGYLRFGRSEYWGQGTLVTVSS
notes: as for B3
With B8 the koff [10] was 0.000459 s⁻¹ and the koff [11] was 0.00308 s⁻¹.

B9: 07B09 (VHH)
VHH: EVQLVESGGGLVQAGGSLRLSCGASGGTFSSYATGWFRQAPGKEREFVAVLRWSDGHTAYADSVKGRFTISRDGAKNTMYLQMSSLKPEDTAIYYCTTATRPGEWDYWGQGTQVTVSS
notes: as for B1
B9: no binding [7].

B10: 24G10 (VHH)
VHH: EVQLVESGGGLVQAGGSLRLSCGAAGGTFSSYATGWFRQAPGKEREFVAVFRWSDSHTAYADSVKGRFTISRDGAKNTLYLQMSSLKPEDTAIYYCTTATRPGEWDYWGQGTQVTVSS
notes: as for B1
B10: no binding [7].

B11: 07B11 (VHH)
VHH: EVQLVESGGGLVQAGGSLRLSCVASGRAFSSYVMGWFRQAPGMEREFVALIRWSDGITGYVDSVKGRFTISRDNAKNTVYLQMNSLKPEDTAVYYCAAAVRPGDYDYWGQGTQVTVSS
notes: as for B1
B11: no binding [7].

B12: 08B07 (VHH)
VHH: EVQLVESGGGLVQPGGSLRLSCAASGRDFRVKNVGWIRQAPGKQRELVATITVGGSTNYADSAKGRFTISRDNAKNTVYLQMSSLKPEDTAVYYCNAVATVTDYTGTYSDGFWGQGTQVTVSS
notes: as for B1
B12: no binding [7].

B13: 24B08 (VHH)
VHH: EVQLVESGGGLVQAGGSLRLSCAVSGGTFSTYKMGWFRQAPGKEREIVARISTNGPTAYAEFVKGRFTVSRENTKNTVYLQMNSLNIEDTAVYYCAAGYDSLFAGYDYWGQGTQVTVSS
notes: as for B1
B13: no binding [7].

Source: US20210130452A1 (Merck KGaA, published 2021)
